Measurements reported in PMC12533313 (2025).

Biological target: α‐synuclein preformed fibrils (UniProt P37840 1-140)
Test: SPR

Kd: 6.67 µM
B1: Recombinant mouse 24p3R protein (receptor)
chain: MPSARFGRRGIVLLTLGLVGPCGVGGAAAGSSTGIMALRFLLGFLLAGVDLGVYLMRLELCDPTQRLRVALAGELVGVGGHFLFLGLALVSKDWRFLQRMITAPCILFLFYGWPGLFLESARWLIVKRQIEEAQSVLRILAERNRPHGQMLGEEAQEALQELENTCPLPATSTFSFASLLNYRNIWKNLLILGFTNFIAHAIRHCYQPVGGGGSPSDFYLCSLLASGTAALACVFLGVTVDRFGRRGILLLSMTLTGIASLVLLGLWDYLNDAAITTFSVLGLFSSQASAILSTLLASEVIPTTVRGRGLGLIMALGALGGLSCPAQRLHMGHGAFLQHVVLAACALLCILSIMLLPETKRKLLPEVLRDGELCRRPSLLRQPPPNRCDHVPLLATPNPAL
